Laboratory results from patent US20220363763A1 (ABL BIO, published 2022).

T1: human LAG3 on cells (human, UniProt P18627 23-525)
T1 construct: whole, on cells; also called Jurkat-LAG3
T1 sequence (looked up): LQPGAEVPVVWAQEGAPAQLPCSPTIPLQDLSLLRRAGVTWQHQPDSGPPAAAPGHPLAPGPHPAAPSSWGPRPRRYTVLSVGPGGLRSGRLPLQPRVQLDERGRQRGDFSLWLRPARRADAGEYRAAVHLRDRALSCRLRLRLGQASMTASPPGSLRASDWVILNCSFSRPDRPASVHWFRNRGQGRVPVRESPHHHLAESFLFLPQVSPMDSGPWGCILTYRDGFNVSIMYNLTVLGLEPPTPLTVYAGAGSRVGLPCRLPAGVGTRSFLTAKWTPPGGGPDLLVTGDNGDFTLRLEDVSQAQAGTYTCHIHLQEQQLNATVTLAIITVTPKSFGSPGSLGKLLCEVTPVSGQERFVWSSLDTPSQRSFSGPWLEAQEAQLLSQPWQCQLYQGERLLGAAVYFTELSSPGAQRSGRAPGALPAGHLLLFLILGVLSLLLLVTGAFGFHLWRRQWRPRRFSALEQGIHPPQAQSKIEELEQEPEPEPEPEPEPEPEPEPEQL

T2: recombinant his-tag human LAG3-ECD protein (human, UniProt P18627 23-450)
T2 construct: extracellular domain; not shown: his tag
T2 sequence (looked up): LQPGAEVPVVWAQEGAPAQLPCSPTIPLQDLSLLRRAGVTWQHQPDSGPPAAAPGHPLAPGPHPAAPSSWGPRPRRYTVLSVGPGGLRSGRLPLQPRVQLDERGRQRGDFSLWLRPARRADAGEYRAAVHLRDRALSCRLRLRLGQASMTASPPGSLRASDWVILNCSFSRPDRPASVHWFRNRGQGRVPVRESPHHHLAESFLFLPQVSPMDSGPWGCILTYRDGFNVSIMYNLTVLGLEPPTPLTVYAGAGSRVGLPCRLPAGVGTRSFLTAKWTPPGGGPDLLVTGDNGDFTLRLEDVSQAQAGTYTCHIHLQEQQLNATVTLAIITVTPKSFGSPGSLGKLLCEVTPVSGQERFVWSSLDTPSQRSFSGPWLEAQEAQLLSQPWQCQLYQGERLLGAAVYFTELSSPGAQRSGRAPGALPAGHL

T3: Bio-LAG3 (human, UniProt P18627 23-450, limits assumed, biotinylated (sites not given))
T3 construct: also called human LAG3 protein
T3 sequence (looked up): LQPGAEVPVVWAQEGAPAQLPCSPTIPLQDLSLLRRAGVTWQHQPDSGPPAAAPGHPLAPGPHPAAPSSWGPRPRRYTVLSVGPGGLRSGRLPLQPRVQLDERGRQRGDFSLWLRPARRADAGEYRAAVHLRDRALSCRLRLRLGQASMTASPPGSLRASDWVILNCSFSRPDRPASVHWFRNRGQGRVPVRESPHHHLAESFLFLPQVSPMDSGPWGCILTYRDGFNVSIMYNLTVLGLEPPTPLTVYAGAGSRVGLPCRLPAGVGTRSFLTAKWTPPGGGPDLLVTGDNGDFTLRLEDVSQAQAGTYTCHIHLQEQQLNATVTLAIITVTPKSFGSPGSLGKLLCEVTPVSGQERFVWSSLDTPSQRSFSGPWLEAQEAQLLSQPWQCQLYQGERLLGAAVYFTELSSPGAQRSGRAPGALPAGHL

T4: biotin-labeled LAG3-ECD (Homo sapiens (Human), UniProt P18627 23-450, biotin label, site not stated)
T4 construct: also called soluble LAG-3; LAG3 protein
T4 sequence: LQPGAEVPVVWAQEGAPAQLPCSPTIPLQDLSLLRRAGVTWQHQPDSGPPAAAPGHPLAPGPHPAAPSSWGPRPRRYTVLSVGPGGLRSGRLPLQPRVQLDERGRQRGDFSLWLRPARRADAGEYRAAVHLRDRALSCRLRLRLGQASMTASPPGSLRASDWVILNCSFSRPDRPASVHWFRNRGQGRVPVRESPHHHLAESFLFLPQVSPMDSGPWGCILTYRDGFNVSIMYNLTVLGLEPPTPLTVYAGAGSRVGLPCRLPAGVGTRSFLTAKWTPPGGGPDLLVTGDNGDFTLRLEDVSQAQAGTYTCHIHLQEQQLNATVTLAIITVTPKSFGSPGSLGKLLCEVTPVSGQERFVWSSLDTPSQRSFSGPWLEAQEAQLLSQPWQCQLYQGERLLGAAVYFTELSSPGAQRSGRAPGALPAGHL

T5: human LAG3 (construct not stated) (human, UniProt P18627 23-450, limits assumed)
T5 construct: also called human LAG3 protein; antigen
T5 sequence (looked up): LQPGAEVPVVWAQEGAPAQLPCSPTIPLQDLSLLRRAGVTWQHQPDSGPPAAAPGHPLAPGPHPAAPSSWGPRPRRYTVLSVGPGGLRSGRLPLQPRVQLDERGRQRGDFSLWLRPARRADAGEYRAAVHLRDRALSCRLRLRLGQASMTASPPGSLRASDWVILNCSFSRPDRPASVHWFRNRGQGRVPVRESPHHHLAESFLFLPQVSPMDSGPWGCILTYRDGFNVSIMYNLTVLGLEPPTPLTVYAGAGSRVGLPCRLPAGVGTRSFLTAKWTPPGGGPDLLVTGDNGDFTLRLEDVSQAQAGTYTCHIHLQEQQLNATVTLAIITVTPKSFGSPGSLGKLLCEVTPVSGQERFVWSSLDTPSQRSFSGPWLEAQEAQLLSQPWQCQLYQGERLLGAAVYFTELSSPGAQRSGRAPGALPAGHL


Tests used:
[1] = target: T1, human LAG3 on cells; assay: flow cytometry (MFI) on activated human PBMC (CD4+ cells), lower panel
Method: (§1) To further confirm that B3807 could bind to cell-derived human LAG3, both inducible human LAG3 expressed Jurkat cells and activated PBMCs were used to test the binding capability of B3807. In brief, Jurkat cells were resuspended in FACS buffer. B3807, 25F7 and isotype control were 3-fold serially diluted in FACS buffer with a dose ranging from 20 nM to 9 pM. The serially diluted antibodies were added to the cell suspension and incubated for 30 minutes on ice. Then after removal of unbound antibodies, cells were stained with anti-human IgG conjugated with Alexa Fluor 633 (Thermo, A21091). Fluorescence measurement was acquired on FACSCelesta flow cytometer and analyzed in Flowjo to determine the mean fluorescence intensities (MFI). To test the antibodies' ability of binding to native human LAG3, PBMCs from health donor were stimulated with anti-CD3 (BD, 555336) and anti-CD28 (BD, 555725) both at a concentration of 1 μg/ml. Following 3 days' stimulation, cells were harvested and incubated with anti-LAG3 antibodies for 30 mins on ice. The cells were stained with anti-human CD4 and anti-human IgG. Analysis of antibodies binding to CD4+ cells were carried out on FACSCelesta flow cytometry.

[2] = target: T2, recombinant his-tag human LAG3-ECD …; assay: Biacore, antibody captured, His-tag human LAG3-ECD injected (procedure of Example 2.16(B)); column kd(1/s)
Method: (§2) The binding of B3807 to recombinant His-tag human LAG3-ECD protein was examined by Biacore T200 using a capture method. B3807 was captured using protein A which was immobilized on CM5 sensor chip. Serial concentrations of his-tag human LAG3-ECD protein (0-12 nM) were injected over capture antibodies at the flow rate of 30 μl/min. The dissociation phase was 900 s or 550 s.
(§3) B3807 was used in the following examples for further testing and preparing bispecific antibodies.

[3] = target: T2, recombinant his-tag human LAG3-ECD …; assay: Biacore T200, B3807 captured on protein A, His-tag human LAG3-ECD injected; column 'KD', unit inferred
Method: as §2

[4] = target: T2, recombinant his-tag human LAG3-ECD …; assay: Biacore, antibody captured, His-tag human LAG3-ECD injected (procedure of Example 2.16(B)); column ka (1/Ms)
Method: as §2, §3

[5] = target: T2, recombinant his-tag human LAG3-ECD …; assay: Biacore, antibody captured, His-tag human LAG3-ECD injected (procedure of Example 2.16(B))
Method: as §2, §3

[6] = target: T3, Bio-LAG3; assay: ELISA, Bio-LAG3 held on streptavidin-coated plate
Method: The streptavidin was coated to an ELISA plate at 2 μg/ml with 100 μl/well. 100 μl of Bio-LAG3 at 1.0 μg/ml was subsequently incubated with streptavidin at RT for 1 hr. B3807, along with a positive control 25F7 and a negative control IgG, were serially diluted with ELISA diluent buffer. To assess binding, the antibodies at various concentrations were added to LAG3 protein-coated plate for 1.5 hr RT. The resulting plates were washed and then labeled with anti-human IgG(Fab)-HRP antibody.

[7] = target: T4, biotin-labeled LAG3-ECD; assay: ELISA on coated recombinant FGL-1; blocking of the binding of biotin-labeled LAG3-ECD to FGL-1
Method: Recombinant FGL-1 were coated on a 96 well plated at a concentration of 1 μg/ml and incubated overnight at 4° C. Serially diluted anti-LAG3 antibody B3807 (starting from 10 μg/ml and 1:3 dilution) and biotin-labeled LAG3-ECD (2 μg/ml) were incubated with FGL-1 coated wells at room temperature for 2 hours. After extensive washing with the wash buffer, streptavidin-HRP was added.

[8] = target: T1, human LAG3 on cells; assay: flow cytometry (MFI) on human LAG3-expressing Jurkat cells, upper panel
Method: as §1

[9] = target: T5, human LAG3 (construct not stated); assay: TR-FRET LAG3 / MHC II binding assay (Cisbio), competitor MHC II
Method: To measure the ability of B3807 to block the interaction between human LAG3 and MHCII, the LAG3 and MHC II binding assay (Cisbio, 64ICP03PEG) was performed utilizing homogeneous TR-FRET technology, following the protocol provided by the kit manufacturer. B3807 was 3-fold diluted ranging from 100 nM to 5 pM (10 points). Fluorescence data was acquired on a PerkinElmer Envision plate reader and a four-parameter dose-response curve was fitted to obtain IC50 of each antibody.

[10] = target: T6, human PD-L1 expressed on mammalian cells (human, UniProt Q9NZQ7 19-290); assay: FACS-based receptor blocking on PDL1-CHOK1 cells; blocked ligand biotin-labeled huPD-1; unit from the x axis Log [Con. M]; the text prints the rounded 2.56 nM
T6 construct: whole, on cells; also called PDL1-CHOK1 cells; PDL1-Raji cells
Method: (§4) To evaluate the blocking effect of HL1210-3 mouse mAb on human PD-L1 expressed on mammalian cells to bind to its receptor PD-1, the FACS-based receptor blocking assay was used. Briefly, PDL1-CHOK1 cells were firstly incubated with 3-fold serious diluted HL1210-3 mouse mAb starting at 20 μg/ml at RT for 1 hour. After wash by FACS buffer (PBS with 2% FBS), the biotin-labeled huPD-1 was added to each well and incubated at RT for 1 hour. Then, the Streptavidin-PE was added to each well for 0.5 hour post twice wash with FACS buffer. The mean florescence intensity (MFI) of PE was evaluated by FACSAriaIII.

[11] = target: T7, human PD-L1-his taq protein (human, UniProt Q9NZQ7 19-239, limits assumed); assay: SPR Biacore T200, antibody captured by anti-mouse Fc, PD-L1-his injected
T7 construct: also called recombinant PD-L1 protein; recombinant human PD-L1; not shown: his tag
Method: The binding of the HL1210-3 antibodies to recombinant PD-L1 protein (human PD-L1-his taq) was tested with BIACORE™ using a capture method. The HL1210-3 mouse mAb was captured using anti-mouse Fc antibody coated on a CM5 chip. A series dilution of human PD-L1-his taq protein was injected over captured antibody for 3 mins at a flow rate of […]. The antigen was allowed to dissociate for 900 s. All the experiment were carded out on a Biacore T200. Data analysis was carried out using Biacore T200 evaluation software.

[12] = target: T8, human PD-L1-Fc protein (human, UniProt Q9NZQ7 19-239); assay: ELISA receptor blocking, coated PD-L1-Fc, competitor biotin PD-1-Fc
T8 construct: Coated on ELISA plates; also called huPD-L1; not shown: Fc part
Method: To evaluate the blocking effect of HL1210-3 mouse mAb on recombinant human PD-L1 to bind to its receptor PD-1, the ELISA based receptor blocking assay was employed. Briefly, microtiter plates were coated with human PD-L1-Fc protein at 1 μg/ml in PBS, 100 μl/well at 4° C. overnight, then blocked with 100 μl/well of 5% BSA. 50 μl biotin-labeled human PD-1-Fc protein and 3-fold dilutions of HL1210-3 antibodies starting from 2 μg/ml at 50 μl were added to each well and incubated for 1 hour at 37° C. The plates were washed with PBS/Tween and then incubated with Streptavidin-HRP for 1 hour at 37° C. After washing, the plates were developed with TMB substrate and analyzed by spectrophotometer at OD 450-630 nm.

[13] = target: T8, human PD-L1-Fc protein; assay: ELISA on coated PD-L1-Fc
[14] = target: T6, human PD-L1 expressed on mammalian cells; assay: FACS receptor blocking on PDL1-CHOK1 cells, competitor biotin huPD-1
Method: as §4

T7 sequence (Q9NZQ7 19-239 limits assumed): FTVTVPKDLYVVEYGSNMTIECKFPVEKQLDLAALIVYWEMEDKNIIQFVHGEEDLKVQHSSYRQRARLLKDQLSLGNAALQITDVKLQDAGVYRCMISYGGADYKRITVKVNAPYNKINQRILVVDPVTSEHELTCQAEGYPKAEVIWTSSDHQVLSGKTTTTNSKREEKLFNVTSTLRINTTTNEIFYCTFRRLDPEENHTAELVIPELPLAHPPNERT
T6 sequence (Q9NZQ7 19-290): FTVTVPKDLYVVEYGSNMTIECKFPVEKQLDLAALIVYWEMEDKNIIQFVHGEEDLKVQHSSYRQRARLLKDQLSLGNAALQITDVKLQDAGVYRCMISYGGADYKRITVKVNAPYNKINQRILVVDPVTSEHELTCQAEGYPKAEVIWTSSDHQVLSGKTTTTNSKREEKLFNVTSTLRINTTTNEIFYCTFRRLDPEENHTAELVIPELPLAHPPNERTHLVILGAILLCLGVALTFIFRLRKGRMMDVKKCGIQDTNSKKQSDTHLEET
T8 sequence (Q9NZQ7 19-239 limits assumed): as the sequence (Q9NZQ7 19-239 limits assumed) above

Row | EC50 [1] [nM] | koff [2] [s⁻¹] | Kd [3] [nM] | kon [4] [M⁻¹ s⁻¹] | Kd [5] [nM] | EC50 [6] [nM] | IC50 (read off the curve) [7] [µg/mL] | EC50 [8] [nM] | IC50 [9] [nM] | IC50 [10] [nM] | Kd [11] [nM] | koff [11] [s⁻¹] | kon [11] [M⁻¹ s⁻¹] | IC50 [12] [nM] | EC50 [13] [µg/mL] | IC50 [14] [nM] | Binder
1 | 0.32 | 0.00517 | 0.464 | 5.66e+06 | 0.915 | 0.06 | ~0.2 | 0.06 | 0.41 | – | – | – | – | – | – | – | 147H 3807 (antibody, V domains shown, also called B3807) VH: EVQLVQSGAEVKKPGASVKVSCKASGYTFTNYWLGWIKQAPGQGLEWIGDIYPGGDYIVYNEKFKGKATLTADTSISTAYMELSRLRSDDTAVYYCARPNLPKDHWGQGTTVTVSS VL: DIVMTQSPLSLPVTPGEPASISCRSSKSLLHSQGITYLYWYLQKPGQSPQLLIYQVSNLASGVPDRFSGSGSGTDFTLKISRVEAEDVGVYYCAQYLELPWTFGGGTKVEIK
2 | – | – | – | – | – | – | – | – | – | 2.56 | 0.293 | 4.69e-05 | 161000 | 0.783 | 0.00554 | 2.56 | HL1210-3 mouse mAb (antibody, V domains shown, Mouse monoclonal antibody purified from hybridoma; also called hybridoma clone HL1210-3) VH: EVKLVESGGDLVKPGGSLKLSCAASGFTFSSYDMSWVRQTPEKSLEWVATISDGGGYIYYSDSVKGRFTISRDNAKNNLYLQMSSLRSEDTALYICAREFGKRYALDYWGQGTSVT VL: DIVMTQSHKFMSTSVGDRVSISCKASQDVTPAVAWYQQKPGQSPKLLIYSTSSRYTGVPDRFTGSGSGTDFTFTISSVQAEDLAVYYCQQHYTTPLTFGAGTKLELK
